Consider 1 molecule from paper PMC8878332, “The C-Terminal Domain of Staphylococcus aureus Zinc Transport Protein AdcA Binds Plasminogen and Factor H In Vitro” (Pathogens, 2022).

The experiment addresses T1, Human plasminogen (human).
T1 construct: human plasminogen, 92 kDa, commercial; also called PLG; purified plasminogen; source: bought: Sigma-Aldrich
As to the kind of experiment: ELISA; plasminogen immobilised on plate wells (1 ug in 100 uL PBS), blocked with 1% gelatin; AdcA 0-1 uM in PBS, 1.5 h at 37 C; bound AdcA detected with rabbit anti-AdcA serum; apparent KD from the fit to total binding saturation (GraphPad Prism); MntC run as control; EACA (0.1-10 mM) or NaCl (25-800 mM) added in further panels. The note with it: both partners purified. A general note: In an ELISA, binding on a coated surface is turned into a signal by an enzyme label.

T1 sequence (P00747 20-810): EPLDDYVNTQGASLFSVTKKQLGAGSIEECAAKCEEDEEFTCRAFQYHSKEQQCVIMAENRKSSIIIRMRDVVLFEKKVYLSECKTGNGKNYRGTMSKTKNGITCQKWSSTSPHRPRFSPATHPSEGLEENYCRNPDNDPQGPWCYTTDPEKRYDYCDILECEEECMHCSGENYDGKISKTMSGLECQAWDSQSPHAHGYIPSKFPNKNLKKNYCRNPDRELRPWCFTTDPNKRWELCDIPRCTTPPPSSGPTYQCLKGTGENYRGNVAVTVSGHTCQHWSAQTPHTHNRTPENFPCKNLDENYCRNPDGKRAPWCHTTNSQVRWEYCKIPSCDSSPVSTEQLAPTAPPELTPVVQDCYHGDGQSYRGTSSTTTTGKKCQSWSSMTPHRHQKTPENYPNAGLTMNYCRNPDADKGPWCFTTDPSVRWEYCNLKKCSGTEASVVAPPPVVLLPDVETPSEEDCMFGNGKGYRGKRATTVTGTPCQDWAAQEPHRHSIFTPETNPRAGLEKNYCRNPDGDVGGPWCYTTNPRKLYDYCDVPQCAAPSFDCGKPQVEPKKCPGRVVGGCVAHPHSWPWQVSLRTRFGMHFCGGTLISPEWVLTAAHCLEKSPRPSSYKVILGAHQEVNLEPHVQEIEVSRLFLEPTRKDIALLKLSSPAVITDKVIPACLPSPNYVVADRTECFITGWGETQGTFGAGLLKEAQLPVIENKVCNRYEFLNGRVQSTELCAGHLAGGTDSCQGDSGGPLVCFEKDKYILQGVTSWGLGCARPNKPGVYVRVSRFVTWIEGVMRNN

B1: MntC from Staphylococcus aureus (natural protein)
chain: CGTGGKQSSDKSNGKLKVVTTNSILYDMAKNVGGDNVDIHSIVPVGQDPHEYEVKPKDIKKLTDADVILYNGLNLETGNGWFEKALEQAGKSLKDKKVIAVSKDVKPIYLNGEEGNKDKQDPHAWLSLDNGIKYVKTIQQTFIDNDKKHKADYEKQGNKYIAQLEKLNNDSKDKFNDIPKEQRAMITSEGAFKYFSKQYGITPGYIWEINTEKQGTPEQMRQAIEFVKKHKLKHLLVETSVDKKAMESLSEETKKDIFGEVYTDSIGKEGTKGDSYYKMMKSNIETVHGSMK
Take B1: the Kd was determined as 14.8 nM.
